Assay results reported in patent US20040002144A1.
Where a chain is given by its changes, count along the chain named. Names may count otherwise.

B1: Ser-type MTG (mutant in which Asp1 has been removed, starts with Ser2), P81453 78-407 (enzyme)
chain: SDDRVTPPAEPLDRMPDPYRPSYGRAETVVNNYIRKWQQVYSHRDGRKQQMTEEQREWLSYGCVGVTWVNSGQYPTNRLAFASFDEDRFKNELKNGRPRSGETRAEFEGRVAKESFDEEKGFQRAREVASVMNRALENAHDESAYLDNLKKELANGNDALRNEDARSPFYSALRNTPSFKERNGGNHDPSRMKAVIYSKHFWSGQDRSSSADKRKYGDPDAFRPAPGTGLVDMSRDRNIPRSPTSPGEGFVNFDYGWFGAQTEADADKTVWTHGNHYHAPNGSLGAMHVYESKFRNWSEGYSDFDRGAYVITFIPKSWNTAPDKVKQGWP
B2: transglutaminase derived from Streptoverticillium mobaraense (MTG), wild type, P81453 77-407 (enzyme)
chain: DSDDRVTPPAEPLDRMPDPYRPSYGRAETVVNNYIRKWQQVYSHRDGRKQQMTEEQREWLSYGCVGVTWVNSGQYPTNRLAFASFDEDRFKNELKNGRPRSGETRAEFEGRVAKESFDEEKGFQRAREVASVMNRALENAHDESAYLDNLKKELANGNDALRNEDARSPFYSALRNTPSFKERNGGNHDPSRMKAVIYSKHFWSGQDRSSSADKRKYGDPDAFRPAPGTGLVDMSRDRNIPRSPTSPGEGFVNFDYGWFGAQTEADADKTVWTHGNHYHAPNGSLGAMHVYESKFRNWSEGYSDFDRGAYVITFIPKSWNTAPDKVKQGWP
B3: S2Y mutant MTG (Ser2 replaced with Tyr, in Met type MTG), P81453 79-407 (enzyme)
chain: MDYDDRVTPPAEPLDRMPDPYRPSYGRAETVVNNYIRKWQQVYSHRDGRKQQMTEEQREWLSYGCVGVTWVNSGQYPTNRLAFASFDEDRFKNELKNGRPRSGETRAEFEGRVAKESFDEEKGFQRAREVASVMNRALENAHDESAYLDNLKKELANGNDALRNEDARSPFYSALRNTPSFKERNGGNHDPSRMKAVIYSKHFWSGQDRSSSADKRKYGDPDAFRPAPGTGLVDMSRDRNIPRSPTSPGEGFVNFDYGWFGAQTEADADKTVWTHGNHYHAPNGSLGAMHVYESKFRNWSEGYSDFDRGAYVITFIPKSWNTAPDKVKQGWP
B4: S2D mutant MTG (Ser2 replaced with Asp, in Met type MTG), P81453 79-407 (enzyme)
chain: B3 chain with Y3D
B5: S2R mutant MTG (Ser2 replaced with Arg, in Met type MTG), P81453 79-407 (enzyme)
chain: B3 chain with Y3R

The binders below were run against casein (assay: cell-based or functional assay).

time required for the gelation of casein | Binder
85 min | B1
90 min | B2
100 min | B3
95 min | B4
85 min | B5
